Assay: soluble on expression in E. coli; label from the status in PepcDB or PDB records

Row | Sequence | soluble on expression in E. coli
1 | MGSDKIHHHHHHGREEKTVYDFPLEQSLKSDKEVSLNKELLAPYLMCSYDSTLCLIDWTANPMVHVYNMNTGKEMVAFGNKGMGPDDFLSISQMYVDMGKRSLLLYDQSLQTISSFQIDSLAQGSLSKIDCVSAPKLGMNRVYAYSDSIFYGSGTFESGLIAKCNQKEILNQYLPFPHTEQAVNRDVNYLLFQGDLIMKPDKKRFAYLAYECDLLSIQKVVNDTCLESVVHLNTYTPVFENQSTNEVSSVNVSTDSPKGFLRGVATENYVYALYSGQIGKNKAIANEVYVFDWEGRAVKKVILDRWGICISVDSNDERLCLMTKETDGGEERYHYYCYQLN | not soluble
2 | GMSEPYGKAFSLMRAEAEPAWRAYTHHAFVEGLKAGTLPREAFLHYLQQDYVFLIHFSRAWALAVVKSETHSEMLAAVGTVNALVAEEMQLHIGICEASGISQEALFATRERAENLAYTRFVLEAGYSGDLLDLLAALAPCVMGYGEIGKRLTAEATSTLYGDWIDTYGGDDYQAACKAVGTLLDDALERRLGAEFTSSPRWSRLCQTFHTATELEVGFWQMGLTP | soluble
3 | MGLFDRIKRVVSANLNDLVNKAEDPEKMLEQAILEMQEDLVQLRQGVAQAIAAQKRTEKQYSDAQNEINKWQRNAQLALQKGDENLARQALERKKTYTETGTALKTSLDQQSTQVETLKRNLIQLESKISEAKTKKEMLKARITTAKAQEQLEGMVRGMNSSSAMAAFERMEEKVLMQEARAQSAAELAGADLETQFARLESGSDVDDELAALKASLAPAPEQNLLPPQQQEQQSTAPKSKEVVDSELDALRKQLDQL | not soluble
4 | MSLKIKHEHIRMAMNAWAHPDGEKVPAAEITRAYFELGMTFPELYDDSHPEALARNTQKIFRWVEKDTPDAVEKIQALLPAIEKSMPPLLVARMRSHSSAYFRELVETRERLVRDADDFVAVAIAGFNQMNRGGPAGNIVAVHEGHHHHHH | soluble
5 | MPLKPGANPYKILHLEKGCTDKEIQKAYRAQCLKWHPDKNLDNKEEAERRFIEAKEAFDFLYDKEKREEYDNREERIRMAQEHHSKRMAEADGKRKKLIEDLEKREKEFSNGGKRSADGSTPMTAAQQAKKKKTDQRNFKEEIEAIRRQLEKEVNEEVKQKATLMKTEREKHQKSQEKLTPRLLLKWKTSEGLDYSEDDIRKLFSTFGIISHISSAIEKKDRRKRILEFESGANAWGAELETGNAPMPEITCEWLQPPVETVKKASDEPVKSTNTGANNLEHMSLDDLEAQIMGGF | not soluble
6 | MGKVLVIYDTRTGNTKKMAELVAEGARSLEGTEVRLKHVDEATKEDVLWADGLAVGSPTNMGLVSWKMKRFFDDVLGDLWGEIDGKIACAFSSSGGWGGGNEVACMSILTMLMNFGFLVFGVTDYVGKKFTLHYGAVVAGEPRSEEEKEACRRLGRRLAEWVAIFVDGRKELLEKIRKDPARFVD | soluble
7 | MTKLPQTQGVLNFIQKYLYNSTNYNFEDGSTQAINVPYPDSGVYENYILHYPDATSTELLDINIDQLYSEVMVLTDPKIERAYEYILEERDPGTSSTNILVTVGVE | not soluble
8 | MIDKSGYRANVAIVLLNKQNRVFWGQRRNRTSWQFPQGGVATGETPLQAMYRELHEEIGLRPQDVEVIASTRDWYKYDIPDSLVRTKEPICIGQKQKWFLLKLKSPESYIDLDANDSPEFDNWRWVSYWYPINHVVYFKQEVYRKALTYFKEYIA | not soluble
9 | MSSFTHFNDQGRAKMVDISDKKATVRTAIACSSIVVTKEIYDKISHNEIGKGDVLAVAQIAGIMAAKRTSDIIPMCHPLLLKGVDVSFDWKQSDEQYRLLIEVKVKTEGSTGVEMEALTAASATALTVYDMCKAVDKGMIIGETYLLEKTGGKSGDYTRKS | not soluble
10 | MAHHHHHHMSMKKKMTKPFRTVVHLPVEEARGAIVRMIRRHNAVVIVGETGSGKTTQIPQYVWDDLVSREPPEQQGIVGCTQPRRVAAVSIARHVAKQRGGSVGAEVAYAVRFDDTCSRQTKIKYMTDGILLREIQTDPDLSHYRCLLLDEAHERTLHGDVLFGLLKDIVRRRKKTLTIVVMSATLNAEHFSKFWWNAPIGVVHGRLYPVTIFHTVEPQADYVEAAVSTLLQIHEKEEPGDVLCFLTGQEEIEDAKRILERRMKVMPSTLQEFMILTLYSAMPYEQQLRVFEPPLPGKRRIILSTNIAETSITVEGIRYVVDSGVVKAKFFSSKSGMEVLSEVDVSKAQATQRAGRAGRMTAGKCFRLYTAQAFESLAENTVPEIQRSSLISVVLEMKSLRIDRIMDFEFMDAPNPKAVVRAEETLMLLGALDRQGHITRLGQRLIDFPIEPMAAIVLLAGKALGVERDVTIAISMTMTENLFFTSREAKDGADRCKAAFAKSAGDHATLLGIYYAYKRVPKDQRKMWCESNAVNPSQMLKAEDVMTQLGAILNEHSDEELLSTMVRRSPNLAGNGAALHRKRRRDSEKDASGDDETSELLKGQTSGMVKLRDFELIRRALCYGFSLNAAFYNAKIGNYQTVVGQQVVHLHPSSVLFYQRKKPALVVFNSVVRTTRRYMKDVSVVQEEWLRDAASFLRPVA | not soluble
11 | MSLYKVYGDYQSGNCYKVKLMLSLLGRPYEWHPVDILKGETETPEFLAMNPNGKVPVLELEDGSYLWESNAILNYLADGSEFLPSEPRLRTQVLQWQFFEQYSHEPYIAVARFIQFYLGLPDERLDEYRKLHKGGYKALKVMERQLQMTPYLVGEQYSIADVALYAYTHVAQQGGFDLADYPAVRAWLERVSSHPRHVPMVGEGHHHHHH | soluble
12 | MSLGELLFNRSFENTKPVSESNSWYTCYRGDVKEAKWWHSGYEEPKWYLLADGRKEEKLPLIFNNYWPSAHGKYFLQIDNRKKQIPTLLVQERIYIEKGKGYTVSGLFSSGGYLSEEKYSKESVPVTIAIYKEGDFHTPLSKTELAVNTNQFILYSSSLDATEYEGWCTYTIEVPAGGCVGIDLLSLMADDVIKGWKRESVERIKNELRPRTMRMPGGCFTSLYDWRSGIGPREERPVSYDTWWGCELLNDVGTFELVDLCEAVGAEPFFCVPVMFNNEYSAADWVDFCNNPTNAQRIAYGRTKPLNVKYWELENEPYRRFDAVTYANRCVDFAKAMKAKDPSIKIAVGNYWLFNKKFKEMLEIVGPYVDLITNRGGTPEEMRADIVILDAYNKAHGTDIKLCHTEFRAPVTRNEGNTDGLNQKDTGGEETLFNASIRWGFAMNMVEQYIAYQNMGGSFFTANYTNLSDGWGECLINTPKEGTYLNAPGVAFALLNSLDIAYPQIIEQEKENQDIVIQAAWNKRRDKLTLVVLNFSQNTQPCKIDFSQIKKSFRVRKGMKIAPQSDLSFNTLQHPEEVKVESFVPSTGKMMKLGLPGNSLIVVELQAERSHGIHVNASTGNEGHHHHHH | not soluble
13 | MAHHHHHHMIGKIFDNAFRIRTYNRFVCFLIGGTFAYSFSNPDMDTVYDLFPIFKQNKYAYLTFLEVNEKHSNVFEERLKDLCRFYQKQPGYLYTKIIKRIDNINDISKYIVISTWIKSENYLLACNRMYGQILINKIQNYAKYNSYLYRIVVDDSDYLPPI | not soluble
14 | PRKRFIYLERKISPAMASYIKELKIPGIHLRKESKRFYPTGEISAHLIGFTNVDDKGIEGIERMYDDLLTGTGGAKRFRKDAKGRKIEIISVEEPEQAQDITLSID | not soluble
15 | MSLADVQQFPESIAELVPKFHVLKLPMVTRFRSITEREVMLFEGPDGWAEFSPFTEYGSVESSRWLQAALEFAGLLPTAEVEPSAVGSAAETVGQSVAVNATLPACATSEVGPILARYGPVGTVKAKVAEHGIDSLPEDWDRLREFRRLFPETTLRLDANAGYALPEALAACTEFAEFDLQYFEQPVAAVEDMARLREQLSARELPVVLAADESIRKAEDPVRVAELGAAEVVIVKVQPLGGIAAARSVLEACGLPAVVSSALESSVGLAAGAQLAATLPRTQRSRELLGEHPACGLGTGRLFAEDVVEPAQSLRPVDGQIPVTRIVPDPQRLETLAVDPGRFDWWEKRLQECWTALLSRRSEGHHHHHH | not soluble
16 | AHHHHHHGSHKLKVSVSFSYGKKEIVKNVEFEGKVGEIIAIIGPNGAGKSTLLKCIAGILKPRGIIEYNGIDLTKLKPKERAKIVGYVPQSSYPEFAFTVEEFVELGTYAGKGDVDEAIRRVGLWEKRKEFITNLSGGEYQLTLIARALAQGGDIMLLDEPTSHLDINHTREIMEILQELKKEKLIIAVFHDLNLAINYADEIIVLKNGETAWKGKSKEISEEVIEATYGIKPRIVREDGIVAVLP | soluble
17 | MGSDKIHHHHHHMSETSDTIREAFTESAWIPSPKEVFGPDGSLTEEVGEENKSLIWTLLKQIRPGMDLSKVVLPTFILEPRSFLEKLADYYYHADLISEAVAEPDPFQRIVKVTKFFLSGFYKKPKGLKKPYNPILGETFRCKWEHPDGSTTFYMAEQVSHHPPVSSLFITNRKAGFNISGTILAKSKYYGNSLSAILAGKLRLTLLNLGETYIVNLPYANCKGIMIGTMTMELGGEVNIECEKTGYRTTLDFKLKPMLGGAYNQIEGSIKYGSDRLASIEGAWDGVIRIKGPDGKKELWNPTPEVIKTRLPRYEINMDEQGEWESAKLWRHVTEAISNEDQYKATEEKTALENDQRARAKSGIPHETKFFKKQHGDDYVYIHADYRPWDNNNDIQQIENNYVVKTISRHSKRKTGNSEQLGSDNTSEASESDEE | not soluble
18 | MGSDKIHHHHHHMQPLAQTLDRIRTISEYLKPEFGIPADGNWVSVADDFVSGSPWLTSMIAAEQTRLRTTSAAIIGSTLLQNYQWPIIPTVVACYLFEQRVPDLAPANTRVHFTAEHQADALALLGGRFSALPDDPAAEHPDATIVPDRAALRDAMRTGIESHFAVVIEHICAALGCKPRGLWLNVADAVANALIWLAQQHAAFDPTQIEAEVEAVIRVPGSPLNNRQVGLIQLSYGENRQLFLRRATCCYWYKTEGGEYCLTCPHRTAEDRQARLLAYMAQKYTQQQQLVQEEVTA | not soluble
19 | MVDKIIFTVTPIFSIPPRGAAAVETWMYQVAQRTNFPNRIVCIKNPGYSNYTFVNDNCSIHRVGFSRIYKRLFQKWTRLDPLPYSQRILNIAHDFPITKESVIVVHNSMKLYTQIRKRAPQARVVIHMHNAFEPKLLEQNVKMIVPSLYLKKYYQSYLANADIEIVPNGIDLETYQSNFQPITRSELNISPEEKIIFYAGRIVPDKGILLLMQSFEKLAAAHKNLKLVVIGDYTEMSKSDKGAYQRNVREIAKRLKDRCIMLGSIPPEKMHCYYPLADLVVIPSQFQEPFCMVAIEAMGAGKPVLVSTRGGMTEFVKENTTGFHLKEPMTADSISSDILKTLANPELTAVAKQGQDFVFDHYSWDGVTQRFEEVIHNWFE | not soluble
20 | MHVIDLSYFVKIYRSKNKHISVNFLRHLHRAGDLHLSGTTRCIYEDVIMKKCLTLLIATVLSGISLTAYAAQPMSNLDSGQLRPAGTVSATGASNLSDLEDKLAEKAREQGAKGYVINSAGGNDQMFGTATIYK | soluble
21 | MGSDKIHHHHHHHKKTFDYIFNKTEAITLEQSKLTLSKDITVLSFSDSSMVDRNSSIIKVDSGWIVYSKNSESSILSFTSDGQFSGYIGHRGNGPGEYTSVYDVVVNQKSKVLEVLSDGGIFCYTFGGDFLDKKEVTYPAFSFAIDDRQNYWFYVGNNTTYGDAKMICTDENIANVAYYLHQKSNMLPMVENNFGRNGEWLTFHESLNHDLYTIENGKLDLSYAMDFPNYKLPKKLHELSGMEVIEELQRSNYASIINYLENHDYIFLNVLLNNEGERIPEVYYWIISKNLQEEVIIKIDGGISAESYLFNTQYLSNDNKLYCLGYIWENKDVESFEENLNPSVVALEFNELFSKVR | not soluble
